Measurements taken from patent publication US20190134153A1, “IMMUNOMODULATORY EFFECT OF INHALED KINASE INHIBITOR PEPTIDES IN LUNG” (MOERAE MATRIX, INC., priority 2017, published 2019).

Legend:
Assay in all cases: Kinase Profiling Assay
Format in all cases: biochemical
Conditions in all cases: 100 μM
AMPKα1(h) = AMPKα1(h) (Homo sapiens, UniProt Q13131)
CaMKIIβ(h) = CaMKIIβ(h) (Homo sapiens, UniProt Q13554)
CLK3(h) = CLK3(h) (Homo sapiens, UniProt P49761)
DMPK(h) = molecular target: T1, DMPK(h) (Homo sapiens, UniProt Q09013)
T1 sequence (Q09013 1-629): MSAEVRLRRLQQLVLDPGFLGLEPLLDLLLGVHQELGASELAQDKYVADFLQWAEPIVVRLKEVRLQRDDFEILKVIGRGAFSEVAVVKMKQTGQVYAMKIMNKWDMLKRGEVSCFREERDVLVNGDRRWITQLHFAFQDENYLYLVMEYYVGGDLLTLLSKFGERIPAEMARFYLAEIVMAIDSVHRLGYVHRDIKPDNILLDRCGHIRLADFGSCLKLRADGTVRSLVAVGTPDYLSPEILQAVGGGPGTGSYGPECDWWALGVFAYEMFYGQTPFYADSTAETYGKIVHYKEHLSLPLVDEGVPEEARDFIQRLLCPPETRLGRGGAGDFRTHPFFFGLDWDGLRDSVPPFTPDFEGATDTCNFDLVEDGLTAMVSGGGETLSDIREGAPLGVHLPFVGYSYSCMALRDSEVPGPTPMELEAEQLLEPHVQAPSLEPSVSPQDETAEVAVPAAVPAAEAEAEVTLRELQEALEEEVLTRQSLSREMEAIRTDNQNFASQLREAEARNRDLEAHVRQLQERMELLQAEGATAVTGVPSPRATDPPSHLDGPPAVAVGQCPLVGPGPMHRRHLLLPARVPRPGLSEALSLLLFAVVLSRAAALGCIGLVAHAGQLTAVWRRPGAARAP

FGFR2(h) = FGFR2(h) (Homo sapiens, UniProt P21802)
GSK3α(h) = GSK3α(h) (Homo sapiens, UniProt P49840)
Chain of GSK3α(h) (P49840 whole entry): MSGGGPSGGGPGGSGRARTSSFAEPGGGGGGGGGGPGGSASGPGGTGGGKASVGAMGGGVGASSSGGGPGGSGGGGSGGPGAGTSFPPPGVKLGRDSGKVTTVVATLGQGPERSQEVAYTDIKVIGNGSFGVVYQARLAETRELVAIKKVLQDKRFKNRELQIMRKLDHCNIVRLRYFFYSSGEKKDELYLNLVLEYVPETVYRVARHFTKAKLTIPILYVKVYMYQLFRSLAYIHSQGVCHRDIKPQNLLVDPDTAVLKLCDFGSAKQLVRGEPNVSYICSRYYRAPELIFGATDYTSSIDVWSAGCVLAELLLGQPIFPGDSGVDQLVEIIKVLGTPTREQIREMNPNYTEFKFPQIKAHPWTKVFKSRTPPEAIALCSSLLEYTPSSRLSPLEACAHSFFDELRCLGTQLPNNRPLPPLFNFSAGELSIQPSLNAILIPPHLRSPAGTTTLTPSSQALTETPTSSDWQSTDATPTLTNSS

NEK3(h) = molecular target: T2, NEK3(h) (Homo sapiens, UniProt P51956)
T2 sequence (P51956 1-506): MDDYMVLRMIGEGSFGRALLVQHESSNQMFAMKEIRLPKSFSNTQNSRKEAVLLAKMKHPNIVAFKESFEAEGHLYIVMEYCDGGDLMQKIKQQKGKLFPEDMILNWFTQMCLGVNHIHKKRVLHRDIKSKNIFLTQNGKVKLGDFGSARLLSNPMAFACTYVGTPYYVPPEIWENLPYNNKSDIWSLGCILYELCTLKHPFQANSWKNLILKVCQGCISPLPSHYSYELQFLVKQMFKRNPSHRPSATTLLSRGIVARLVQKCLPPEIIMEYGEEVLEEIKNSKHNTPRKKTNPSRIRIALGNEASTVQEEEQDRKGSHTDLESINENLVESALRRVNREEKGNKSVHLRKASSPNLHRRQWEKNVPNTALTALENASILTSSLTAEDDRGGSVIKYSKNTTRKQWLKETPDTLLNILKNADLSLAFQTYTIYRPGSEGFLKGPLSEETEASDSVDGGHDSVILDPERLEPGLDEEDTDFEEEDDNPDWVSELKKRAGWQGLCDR

PKCι(h) = molecular target: T3, PKCι(h) (Homo sapiens, UniProt P41743)
T3 sequence (P41743 1-596): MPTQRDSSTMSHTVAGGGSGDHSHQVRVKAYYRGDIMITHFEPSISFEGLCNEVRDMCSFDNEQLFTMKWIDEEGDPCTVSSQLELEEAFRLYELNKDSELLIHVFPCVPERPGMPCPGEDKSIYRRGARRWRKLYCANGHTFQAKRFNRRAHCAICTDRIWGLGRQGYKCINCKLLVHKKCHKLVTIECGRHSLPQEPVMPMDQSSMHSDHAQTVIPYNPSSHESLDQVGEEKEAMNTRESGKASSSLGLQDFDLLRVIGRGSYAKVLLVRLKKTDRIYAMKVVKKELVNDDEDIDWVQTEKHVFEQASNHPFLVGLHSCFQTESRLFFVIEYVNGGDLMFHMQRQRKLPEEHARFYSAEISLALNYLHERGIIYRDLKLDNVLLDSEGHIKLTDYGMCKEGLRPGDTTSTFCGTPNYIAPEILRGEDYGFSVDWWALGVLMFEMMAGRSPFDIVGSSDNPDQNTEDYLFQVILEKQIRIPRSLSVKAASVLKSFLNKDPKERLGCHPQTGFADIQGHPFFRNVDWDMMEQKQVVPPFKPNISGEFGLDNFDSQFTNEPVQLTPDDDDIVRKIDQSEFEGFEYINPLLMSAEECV

Ret(h) = Ret(h) (Homo sapiens, UniProt P07949)
Ret (V804L)(h) = Ret (V804L)(h) (Homo sapiens, UniProt P07949, V804L)
Src(1-530)(h) = molecular target: T4, Src(1-530)(h) (Homo sapiens, UniProt P12931)
T4 construct: Src(1-530)(h)

Chain of CLK3(h) (P49761 whole entry): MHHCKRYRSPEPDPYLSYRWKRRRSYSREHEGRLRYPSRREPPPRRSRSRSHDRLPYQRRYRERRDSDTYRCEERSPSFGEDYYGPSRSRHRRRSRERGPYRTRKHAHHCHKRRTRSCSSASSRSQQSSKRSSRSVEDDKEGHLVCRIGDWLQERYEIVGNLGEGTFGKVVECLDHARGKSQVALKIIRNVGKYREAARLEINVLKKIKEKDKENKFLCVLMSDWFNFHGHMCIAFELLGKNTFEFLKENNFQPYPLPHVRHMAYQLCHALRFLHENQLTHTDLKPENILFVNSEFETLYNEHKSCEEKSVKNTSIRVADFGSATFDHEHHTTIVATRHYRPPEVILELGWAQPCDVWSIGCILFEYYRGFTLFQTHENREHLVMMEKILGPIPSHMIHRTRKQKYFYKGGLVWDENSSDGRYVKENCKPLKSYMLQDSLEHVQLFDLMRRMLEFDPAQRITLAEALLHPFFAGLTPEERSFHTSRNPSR
Chain of CaMKIIβ(h) (Q13554 whole entry): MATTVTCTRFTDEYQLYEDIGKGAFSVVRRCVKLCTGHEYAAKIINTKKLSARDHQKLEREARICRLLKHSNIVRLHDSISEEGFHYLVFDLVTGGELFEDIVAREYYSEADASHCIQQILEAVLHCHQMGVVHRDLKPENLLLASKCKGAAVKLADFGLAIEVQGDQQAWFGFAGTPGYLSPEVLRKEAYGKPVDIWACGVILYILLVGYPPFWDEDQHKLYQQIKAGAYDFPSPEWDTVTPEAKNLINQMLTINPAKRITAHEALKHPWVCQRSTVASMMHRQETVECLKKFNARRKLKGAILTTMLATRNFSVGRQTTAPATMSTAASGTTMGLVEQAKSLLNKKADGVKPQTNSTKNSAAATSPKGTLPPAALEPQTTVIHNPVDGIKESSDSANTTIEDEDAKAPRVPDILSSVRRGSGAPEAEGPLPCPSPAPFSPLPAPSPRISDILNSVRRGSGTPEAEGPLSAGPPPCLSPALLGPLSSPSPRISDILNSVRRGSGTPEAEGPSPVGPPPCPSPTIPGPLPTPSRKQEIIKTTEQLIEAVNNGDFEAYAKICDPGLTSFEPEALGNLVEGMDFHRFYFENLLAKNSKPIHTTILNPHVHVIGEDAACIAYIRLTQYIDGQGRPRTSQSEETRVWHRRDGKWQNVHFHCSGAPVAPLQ
Chain of AMPKα1(h) (Q13131 whole entry): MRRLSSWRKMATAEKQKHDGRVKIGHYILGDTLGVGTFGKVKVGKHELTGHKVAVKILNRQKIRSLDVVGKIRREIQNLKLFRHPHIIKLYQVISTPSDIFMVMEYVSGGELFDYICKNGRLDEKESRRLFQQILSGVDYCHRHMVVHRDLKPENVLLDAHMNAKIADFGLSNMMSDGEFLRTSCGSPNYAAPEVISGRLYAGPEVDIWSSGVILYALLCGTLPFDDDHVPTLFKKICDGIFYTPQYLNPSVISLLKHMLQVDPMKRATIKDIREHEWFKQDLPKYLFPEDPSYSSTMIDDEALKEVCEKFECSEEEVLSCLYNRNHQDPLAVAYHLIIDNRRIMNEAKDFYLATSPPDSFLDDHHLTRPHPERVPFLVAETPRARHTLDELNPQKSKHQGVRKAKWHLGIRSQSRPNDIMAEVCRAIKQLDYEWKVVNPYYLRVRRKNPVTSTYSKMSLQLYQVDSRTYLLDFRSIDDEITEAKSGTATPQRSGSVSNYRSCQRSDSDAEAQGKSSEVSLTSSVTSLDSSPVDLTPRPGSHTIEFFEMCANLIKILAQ
Chain of AMPKα1(h) (Q9Y478 whole entry partner): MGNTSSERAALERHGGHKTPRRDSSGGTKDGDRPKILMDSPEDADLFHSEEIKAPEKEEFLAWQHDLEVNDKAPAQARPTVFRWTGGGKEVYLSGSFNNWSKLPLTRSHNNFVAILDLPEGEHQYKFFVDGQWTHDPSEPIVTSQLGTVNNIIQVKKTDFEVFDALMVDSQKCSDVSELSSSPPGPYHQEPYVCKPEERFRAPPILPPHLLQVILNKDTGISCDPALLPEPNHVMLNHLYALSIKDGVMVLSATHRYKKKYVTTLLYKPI
Chain of AMPKα1(h) (P54619 whole entry partner): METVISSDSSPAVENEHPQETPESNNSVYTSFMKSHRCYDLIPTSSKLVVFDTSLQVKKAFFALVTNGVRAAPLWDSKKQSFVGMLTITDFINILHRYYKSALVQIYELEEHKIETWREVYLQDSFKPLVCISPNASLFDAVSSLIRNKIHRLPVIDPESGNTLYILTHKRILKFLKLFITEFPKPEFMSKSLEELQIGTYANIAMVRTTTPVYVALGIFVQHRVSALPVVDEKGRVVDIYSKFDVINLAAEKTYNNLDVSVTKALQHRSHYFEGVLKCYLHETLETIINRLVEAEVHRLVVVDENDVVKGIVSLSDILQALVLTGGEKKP

| Sequence | % activity (AMPKα1(h)) | % activity (CaMKIIβ(h)) | % activity (CLK3(h)) | % activity (DMPK(h)) | % activity (FGFR2(h)) | % activity (GSK3α(h)) | % activity (NEK3(h)) | % activity (PKCι(h)) | % activity (Ret(h)) | % activity (Ret (V804L)(h)) | % activity (Src(1-530)(h)) |
| --- | --- | --- | --- | --- | --- | --- | --- | --- | --- | --- | --- |
| FAKLAARLYRKALARQLGVAA [MMI-0300] | 71% | 2% | 61% | 59% | 14% | 157% | 92% | 68% | 140% | 79% | 23% |
| KAFAKLAARLYRKALARQLGVAA [MMI-0400] | 87% | 11% | 84% | 54% | 18% | 164% | 85% | 46% | 145% | 73% | 19% |
| YARAAARQARAKALNRQLGVA [MMI-0200] | 108% | 53% | 76% | 66% | 73% | – | 100% | 97% | 96% | 100% | 75% |
| HRRIKAWLKKIKALARQLGVAA [MMI-0500] | 35% | 3% | 76% | 12% | 12% | 175% | 20% | 7% | 174% | 20% | 21% |
